Tests used:
ΔG/SEAP/HCV E1E2 [1] = assay: Effects of solubilized FGFR-1 to FGFR-4 (FGFR/Fc) on infectivity of pseudotyped HCV to HepG2 cells; format: cell-based; conditions: FGFR/Fc mixed with virus 1 hour before inoculation, FIG. 5
ΔG/SEAP/HCV E1E2 [2] = assay: Effects of FGF family members on infectivity of pseudotyped HCV to HepG2 cells (SEAP reporter); format: cell-based; conditions: for IC50 ΔG/SEAP/HCV E1E2: growth factor added 1 hour before virus, SEAP in supernatant after 24 hours; for infection of ΔG/SEAP/HCV E1E2: result in words

## FGFR-4
ΔG/SEAP/HCV E1E2 [1]
  infectivity of ΔG/SEAP/HCV E1E2: inhibited

## human FGF 2 (basic): human-derived fibroblast growth factor 2 (basic), commercial product of Pepro Tech
ΔG/SEAP/HCV E1E2 [2]
  IC50 ΔG/SEAP/HCV E1E2: 1.36 µg/mL
  infection of ΔG/SEAP/HCV E1E2: inhibited

## human FGF 18: human-derived fibroblast growth factor 18, commercial product of Pepro Tech
ΔG/SEAP/HCV E1E2 [2]
  IC50 ΔG/SEAP/HCV E1E2: >10 µg/mL

## human FGF 20: human-derived fibroblast growth factor 20, commercial product of Pepro Tech
ΔG/SEAP/HCV E1E2 [2]
  IC50 ΔG/SEAP/HCV E1E2: >10 µg/mL

B1: human FGF 7 (KGF): human-derived fibroblast growth factor 7 (KGF), commercial product of Pepro Tech (protein)
chain: CNDMTPEQMATNVNCSSPERHTRSYDYMEGGDIRVRRLFCRTQWYLRIDKRGKVKGTQEMKNNYNIMEIRTVAVGIVAIKGVESEFYLAMNKEGKLYAKKECNEDCNFKELILENHYNTYASAKWTHNGGEMFVALNQKGIPVRGKKTKKEQKTAHFLPMAIT
ΔG/SEAP/HCV E1E2 [2]
  IC50 ΔG/SEAP/HCV E1E2: 2.32 µg/mL
  infection of ΔG/SEAP/HCV E1E2: inhibited

B2: human FGF 8: human-derived fibroblast growth factor 8, commercial product of Pepro Tech (protein)
chain: QVTVQSSPNFTQHVREQSLVTDQLSRRLIRTYQLYSRTSGKHVQVLANKRINAMAEDGDPFAKLIVETDTFGSRVRVRGAETGLYICMNKKGKLIAKSNGKGKDCVFTEIVLENNYTALQNAKYEGWYMAFTRKGRPRKGSKTRQHQREVHFMKRLPRGHHTTEQSLRFEFLNYPPFTRSLRGSQRTWAPEPR
ΔG/SEAP/HCV E1E2 [2]
  IC50 ΔG/SEAP/HCV E1E2: 8.51 µg/mL
  infection of ΔG/SEAP/HCV E1E2: inhibited

B3: human FGF 17: human-derived fibroblast growth factor 17, commercial product of Pepro Tech (protein)
chain: TQGENHPSPNFNQYVRDQGAMTDQLSRRQIREYQLYSRTSGKHVQVTGRRISATAEDGNKFAKLIVETDTFGSRVRIKGAESEKYICMNKRGKLIGKPSGKSKDCVFTEIVLENNYTAFQNARHEGWFMAFTRQGRPRQASRSRQNQREAHFIKRLYQGQLPFPNHAEKQKQFEFVGSAPTRRTKRTRRPQPLT
ΔG/SEAP/HCV E1E2 [2]
  IC50 ΔG/SEAP/HCV E1E2: 7.41 µg/mL
  infection of ΔG/SEAP/HCV E1E2: inhibited

B4: human FGF 10: human-derived fibroblast growth factor 10, commercial product of Pepro Tech (protein)
chain: LGQDMVSPEATNSSSSSFSSPSSAGRHVRSYNHLQGDVRWRKLFSFTKYFLKIEKNGKVSGTKKENCPYSILEITSVEIGVVAVKAINSNYYLAMNKKGKLYGSKEFNNDCKLKERIEENGYNTYASFNWQHNGRQMYVALNGKGAPRRGQKTRRKNTSAHFLPMVVHS
ΔG/SEAP/HCV E1E2 [2]
  IC50 ΔG/SEAP/HCV E1E2: >10 µg/mL

Reference: patent US20080125362A1, “Method of screening compound preventing cells from infection with Hepatitis C virus (HCV)” (Japan Tobacco Inc., priority 2004, published 2008)
